Laboratory results reported in patent publication US20260049138A1 (Chugai, published 2026).
Positions count from the first letter of the chain named. Names may count otherwise. Values belong to the binder of their own block, whether it stands above or below them.

Biological target: T1, CD3ε homodimer protein (human, UniProt P07766 23-126, limits assumed)
T1 construct: also called CD3 (CD3ε)
Assay: SPR Biacore T200, CD3ε homodimer on chip;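 also: Light-chain single-residue variant antibodies injected over amine-coupled CD3ε homodimer on a CM4 chip at 25 °C, bound amount divided by that of the GLS3000-containing antibody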

T1 sequence (P07766 23-126 limits assumed): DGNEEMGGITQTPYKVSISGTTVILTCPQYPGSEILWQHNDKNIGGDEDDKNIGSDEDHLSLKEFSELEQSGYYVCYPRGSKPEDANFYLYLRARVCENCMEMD

ratio of amount bound vs unaltered GLS3000: 0.48
B1: GLS3000 H27dA one-arm antibody (antibody, human IgG1, kappa, L234A L235A, N297A, name in Kabat numbering)
heavy: QVQLVESGGGVVQPGRSLRLSCAASGFTFSNAWMHWVRQAPGKGLEWVAQIKAKSNNYATYYAESVKGRFTISRDDSKNSLYLQMNSLKTEDTAVYYCRYVHYGAYYGVDAWGQGTTVTVSSASTKGPSVFPLAPSSKSTSGGTAALGCLVKDYFPEPVTVSWNSGALTSGVHTFPAVLQSSGLYSLSSVVTVPSSSLGTQTYICNVNHKPSNTKVDKKVEPKSCDKTHTCPPCPAPEAAGGPSVFLFPPKPKDTLMISRTPEVTCVVVDVSHEDPEVKFNWYVDGVEVHNAKTKPREEQYASTYRVVSVLTVLHQDWLNGKEYKCKVSNKALPAPIEKTISKAKGQPREPQVYTLPPSRCELTKNQVSLSCAVKGFYPSDIAVEWESNGQPENNYKTTPPVLDSDGSFFLVSKLTVDKSRWQQGNVFSCSVMHEALHNHYTQKSLSLSPDYKDDDDK
chain: EPKSSDKTHTCPPCPAPELLGGPSVFLFPPKPKDTLMISRTPEVTCVVVDVSHEDPEVKFNWYVDGVEVHNAKTKPREEQYNSTYRVVSVLTVLHQDWLNGKEYKCKVSNKALPAPIEKTISKAKGQPREPQVCTLPPSRDELTKNQVSLWCLVKGFYPSDIAVEWESNGQPENNYKTTPPVLDSDGSFFLYSKLTVDKSRWQQGNVFSCSVMHEALHNRYTQKSLSLSP
light: DIVMTQSPLSLPVTPGEPASISCRSSQSLVASNRNTYLHWYQQKPGQAPRLLIYKVSNRFSGVPDRFSGSGSGTDFTLKISRVEAEDVGVYYCGQGTQVPYTFGQGTKLEIKRTVAAPSVFIFPPSDEQLKSGTASVVCLLNNFYPREAKVQWKVDNALQSGNSQESVTEQDSKDSTYSLSSTLTLSKADYEKHKVYACEVTHQGLSSPVTKSFNRGEC

ratio of amount bound vs unaltered GLS3000: 0.91
B2: GLS3000 F55Q one-arm antibody (antibody, human IgG1, kappa, L234A L235A, N297A, name in Kabat numbering)
heavy: B1 heavy
chain: B1 chain
light: B1 light with A31H, F60Q

ratio of amount bound vs unaltered GLS3000: 0.41
B3: GLS3000 F55T one-arm antibody (antibody, human IgG1, kappa, L234A L235A, N297A, name in Kabat numbering)
heavy: B1 heavy
chain: B1 chain
light: B1 light with A31H, F60T

ratio of amount bound vs unaltered GLS3000: 0.98
B4: GLS3000 F55N one-arm antibody (antibody, human IgG1, kappa, L234A L235A, N297A, name in Kabat numbering)
heavy: B1 heavy
chain: B1 chain
light: B1 light with A31H, F60N

ratio of amount bound vs unaltered GLS3000: 0.38
B5: GLS3000 G89Q one-arm antibody (antibody, human IgG1, kappa, L234A L235A, N297A, name in Kabat numbering)
heavy: B1 heavy
chain: B1 chain
light: B1 light with A31H, G94Q

ratio of amount bound vs unaltered GLS3000: 1.07
B6: GLS3000 G89I one-arm antibody (antibody, human IgG1, kappa, L234A L235A, N297A, name in Kabat numbering)
heavy: B1 heavy
chain: B1 chain
light: B1 light with A31H, G94I

ratio of amount bound vs unaltered GLS3000: 0.76
B7: GLS3000 F55L one-arm antibody (antibody, human IgG1, kappa, L234A L235A, N297A, name in Kabat numbering)
heavy: B1 heavy
chain: B1 chain
light: B1 light with A31H, F60L

ratio of amount bound vs unaltered GLS3000: 1.13
B8: GLS3000 F55A one-arm antibody (antibody, human IgG1, kappa, L234A L235A, N297A, name in Kabat numbering)
heavy: B1 heavy
chain: B1 chain
light: B1 light with A31H, F60A

ratio of amount bound vs unaltered GLS3000: 0.26
B9: GLS3000 G89E one-arm antibody (antibody, human IgG1, kappa, L234A L235A, N297A, name in Kabat numbering)
heavy: B1 heavy
chain: B1 chain
light: B1 light with A31H, G94E

ratio of amount bound vs unaltered GLS3000: 0.33
B10: GLS3000 G89D one-arm antibody (antibody, human IgG1, kappa, L234A L235A, N297A, name in Kabat numbering)
heavy: B1 heavy
chain: B1 chain
light: B1 light with A31H, G94D

ratio of amount bound vs unaltered GLS3000: 0.69
B11: GLS3000 F55W one-arm antibody (antibody, human IgG1, kappa, L234A L235A, N297A, name in Kabat numbering)
heavy: B1 heavy
chain: B1 chain
light: B1 light with A31H, F60W

ratio of amount bound vs unaltered GLS3000: 0.8
B12: GLS3000 G89N one-arm antibody (antibody, human IgG1, kappa, L234A L235A, N297A, name in Kabat numbering)
heavy: B1 heavy
chain: B1 chain
light: B1 light with A31H, G94N

ratio of amount bound vs unaltered GLS3000: 0.94
B13: GLS3000 F55H one-arm antibody (antibody, human IgG1, kappa, L234A L235A, N297A, name in Kabat numbering)
heavy: B1 heavy
chain: B1 chain
light: B1 light with A31H, F60H

ratio of amount bound vs unaltered GLS3000: 0.4
B14: GLS3000 G89K one-arm antibody (antibody, human IgG1, kappa, L234A L235A, N297A, name in Kabat numbering)
heavy: B1 heavy
chain: B1 chain
light: B1 light with A31H, G94K

ratio of amount bound vs unaltered GLS3000: 0.92
B15: GLS3000 F55Y one-arm antibody (antibody, human IgG1, kappa, L234A L235A, N297A, name in Kabat numbering)
heavy: B1 heavy
chain: B1 chain
light: B1 light with A31H, F60Y

ratio of amount bound vs unaltered GLS3000: 0.19
B16: GLS3000 G89R one-arm antibody (antibody, human IgG1, kappa, L234A L235A, N297A, name in Kabat numbering)
heavy: B1 heavy
chain: B1 chain
light: B1 light with A31H, G94R

ratio of amount bound vs unaltered GLS3000: 1.03
B17: GLS3000 G89T one-arm antibody (antibody, human IgG1, kappa, L234A L235A, N297A, name in Kabat numbering)
heavy: B1 heavy
chain: B1 chain
light: B1 light with A31H, G94T

ratio of amount bound vs unaltered GLS3000: 0.94
B18: GLS3000 G89L one-arm antibody (antibody, human IgG1, kappa, L234A L235A, N297A, name in Kabat numbering)
heavy: B1 heavy
chain: B1 chain
light: B1 light with A31H, G94L

ratio of amount bound vs unaltered GLS3000: 0.69
B19: GLS3000 F55S one-arm antibody (antibody, human IgG1, kappa, L234A L235A, N297A, name in Kabat numbering)
heavy: B1 heavy
chain: B1 chain
light: B1 light with A31H, F60S

ratio of amount bound vs unaltered GLS3000: 0.8
B20: GLS3000 F55M one-arm antibody (antibody, human IgG1, kappa, L234A L235A, N297A, name in Kabat numbering)
heavy: B1 heavy
chain: B1 chain
light: B1 light with A31H, F60M

ratio of amount bound vs unaltered GLS3000: 0.71
B21: GLS3000 F55V one-arm antibody (antibody, human IgG1, kappa, L234A L235A, N297A, name in Kabat numbering)
heavy: B1 heavy
chain: B1 chain
light: B1 light with A31H, F60V

ratio of amount bound vs unaltered GLS3000: 0.65
B22: GLS3000 F55D one-arm antibody (antibody, human IgG1, kappa, L234A L235A, N297A, name in Kabat numbering)
heavy: B1 heavy
chain: B1 chain
light: B1 light with A31H, F60D

ratio of amount bound vs unaltered GLS3000: 0.52
B23: GLS3000 G89M one-arm antibody (antibody, human IgG1, kappa, L234A L235A, N297A, name in Kabat numbering)
heavy: B1 heavy
chain: B1 chain
light: B1 light with A31H, G94M

ratio of amount bound vs unaltered GLS3000: 1.16
B24: GLS3000 F55P one-arm antibody (antibody, human IgG1, kappa, L234A L235A, N297A, name in Kabat numbering)
heavy: B1 heavy
chain: B1 chain
light: B1 light with A31H, F60P

ratio of amount bound vs unaltered GLS3000: 0.72
B25: GLS3000 F55E one-arm antibody (antibody, human IgG1, kappa, L234A L235A, N297A, name in Kabat numbering)
heavy: B1 heavy
chain: B1 chain
light: B1 light with A31H, F60E

ratio of amount bound vs unaltered GLS3000: 1.33
B26: GLS3000 F55K one-arm antibody (antibody, human IgG1, kappa, L234A L235A, N297A, name in Kabat numbering)
heavy: B1 heavy
chain: B1 chain
light: B1 light with A31H, F60K

ratio of amount bound vs unaltered GLS3000: 1.13
B27: GLS3000 G89A one-arm antibody (antibody, human IgG1, kappa, L234A L235A, N297A, name in Kabat numbering)
heavy: B1 heavy
chain: B1 chain
light: B1 light with A31H, G94A

ratio of amount bound vs unaltered GLS3000: 1.63
B28: GLS3000 G89V one-arm antibody (antibody, human IgG1, kappa, L234A L235A, N297A, name in Kabat numbering)
heavy: B1 heavy
chain: B1 chain
light: B1 light with A31H, G94V

ratio of amount bound vs unaltered GLS3000: 0.35
B29: GLS3000 G89P one-arm antibody (antibody, human IgG1, kappa, L234A L235A, N297A, name in Kabat numbering)
heavy: B1 heavy
chain: B1 chain
light: B1 light with A31H, G94P

ratio of amount bound vs unaltered GLS3000: 1.31
B30: GLS3000 F55G one-arm antibody (antibody, human IgG1, kappa, L234A L235A, N297A, name in Kabat numbering)
heavy: B1 heavy
chain: B1 chain
light: B1 light with A31H, F60G

ratio of amount bound vs unaltered GLS3000: 0.7
B31: GLS3000 G89H one-arm antibody (antibody, human IgG1, kappa, L234A L235A, N297A, name in Kabat numbering)
heavy: B1 heavy
chain: B1 chain
light: B1 light with A31H, G94H

ratio of amount bound vs unaltered GLS3000: 1.09
B32: GLS3000 G89F one-arm antibody (antibody, human IgG1, kappa, L234A L235A, N297A, name in Kabat numbering)
heavy: B1 heavy
chain: B1 chain
light: B1 light with A31H, G94F

ratio of amount bound vs unaltered GLS3000: 0.82
B33: GLS3000 F55I one-arm antibody (antibody, human IgG1, kappa, L234A L235A, N297A, name in Kabat numbering)
heavy: B1 heavy
chain: B1 chain
light: B1 light with A31H, F60I

ratio of amount bound vs unaltered GLS3000: 1.31
B34: GLS3000 F55R one-arm antibody (antibody, human IgG1, kappa, L234A L235A, N297A, name in Kabat numbering)
heavy: B1 heavy
chain: B1 chain
light: B1 light with A31H, F60R
